For assay [1], the target named is T1, human SIRP-α V1 D1 domain-6His (human, UniProt P78324 31-149).
T1 construct: also called Analyte A
The experiment in a line: SPR (Biacore 8K), conjugate captured on Protein A chip, His-tagged SIRP-α as analyte, single cycle kinetics; pH 6.0, 25 C. As to the method: (§1) Binding of the anti-SIRP-α antibody conjugate was measured using a Biacore 8K high throughput, high-sensitivity SPR system (Cytiva, Global Life Sciences Solutions USA LLC, Marlborough, MA) equipped with S-type sensor chips. The interaction of the conjugate with SIRP-α was analyzed by flowing His-tagged SIRP-α over Protein A captured anti-SIRP-α antibody conjugate on a Biacore Series S Protein A Sensor Chip. The anti-SIRP-α antibody portion of the conjugate comprised a heavy chain comprising the sequence of SEQ ID NO:66 and a light chain comprising the sequence of SEQ ID NO:73 conjugated to CpG oligo 7-7 (SEQ ID NO: 35).
(§2) All SIRP-α analytes were injected in single cycle kinetics mode at nominal starting concentrations of 100 nM with 3-fold serial dilutions with the exception of rat SIRP-α. Higher starting concentration of 300 nM was used for assessing binding to rat SIRP-α at pH 7.4. Association times were monitored for 120 s, and dissociation times were monitored 600 s at 30 μL/min flow rate. The surfaces were regenerated with 75 mM phosphoric acid at pH1.65 for two pulses of 15 s at 30 μL/min flow rate. Experiments were done at either 25° C. or 37° C. and at pH 6.0 or 7.4. Assay buffers were 1×PBS 0.01% Tween-20 at pH 6.0 with and 1×HBS-EP+ (10 mM HEPES, pH7.4, 150 mM NaCl, 3 mM EDTA, 0.05% (v/v) Surfactant P20) at pH 7.4. All data points were collected in duplicate or greater.
(§3) The data were processed and analyzed with Biacore 8K Evaluation Software Version 4.0.8.20368 (Cytiva, Global Life Sciences Solutions USA LLC, Marlborough, MA). Reference responses from flow cell 1 were subtracted from the active responses from flow cell 2 to obtain the subtracted data (2-1). The responses from the nearest buffer blank injection were then subtracted from the reference subtracted data (2-1) to yield double-referenced data. These double-reference data were fit to a simple 1:1 Langmuir binding model with mass transport to determine the apparent association (ka) and dissociation rate constants (kd). The apparent equilibrium dissociation constant or affinity constant was then calculated based on their ratio as (KD=kd/ka).

The target of assay [2] is T2, human SIRP-α V2 D1 domain-6His (human).
T2 construct: also called Analyte B
Described as above. As to the method: as §1, §2, §3

The target in assay [3] is T3, Cyno SIRP-α V4 D1 domain-6His-Avi (cynomolgus, limits assumed).
T3 construct: also called Analyte C
T3 chain: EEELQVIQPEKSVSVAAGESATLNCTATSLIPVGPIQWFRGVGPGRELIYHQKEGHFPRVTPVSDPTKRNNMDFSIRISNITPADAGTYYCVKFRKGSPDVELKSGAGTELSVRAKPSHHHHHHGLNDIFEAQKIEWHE
The assay is described as above. The method, then: as §1, §2, §3

Assay [4] deals with T4, Mouse SIRP-α normal D1 domain-6His (mouse).
T4 construct: also called Analyte D
T4 chain: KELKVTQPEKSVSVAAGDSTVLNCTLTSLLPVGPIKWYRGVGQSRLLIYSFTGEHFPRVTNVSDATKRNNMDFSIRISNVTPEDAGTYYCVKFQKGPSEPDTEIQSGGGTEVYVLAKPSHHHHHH
Described as above. The method, then: as §1, §2, §3

Assay [5] addresses T5, Rat SIRP-α K32-N373-ECD-6His (rat, UniProt P97710 32-373).
T5 construct: K32-N373 in the name counts on the natural rat protein; also called Analyte E; Rat SIRPα-ECD
T5 sequence: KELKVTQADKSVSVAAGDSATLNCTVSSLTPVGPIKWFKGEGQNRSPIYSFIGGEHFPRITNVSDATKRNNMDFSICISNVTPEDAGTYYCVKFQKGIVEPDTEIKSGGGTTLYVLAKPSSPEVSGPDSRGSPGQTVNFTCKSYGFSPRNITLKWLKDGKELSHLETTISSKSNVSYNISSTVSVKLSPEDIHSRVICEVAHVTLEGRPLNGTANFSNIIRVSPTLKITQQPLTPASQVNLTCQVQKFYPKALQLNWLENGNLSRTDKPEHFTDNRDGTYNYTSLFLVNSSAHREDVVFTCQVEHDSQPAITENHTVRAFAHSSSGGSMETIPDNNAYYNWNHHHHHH
The description is as above. The method, then: as §1, §2, §3

The target in assay [6] is T1, human SIRP-α V1 D1 domain-6His. The experiment in a line: SPR (Biacore 8K), conjugate captured on Protein A chip, His-tagged SIRP-α as analyte, single cycle kinetics; pH 6.0, 37 C. As to the method:
as §1, §2, §3
For orientation: SPR reads the build-up and loss of mass on a sensor chip optically.

The target in assay [7] is T2, human SIRP-α V2 D1 domain-6His. Described as above. The method, then: as §1, §2, §3
For assay [8], the target named is T3, Cyno SIRP-α V4 D1 domain-6His-Avi. The description is as above. As to the method: as §1, §2, §3
The target of assay [9] is T4, Mouse SIRP-α normal D1 domain-6His. The description is as above. The method, then:
as §1, §2, §3

The target of assay [10] is T5, Rat SIRP-α K32-N373-ECD-6His. The assay is described as above. As to the method:
as §1, §2, §3

Assay [11] has as its target T1, human SIRP-α V1 D1 domain-6His. As to the kind of experiment: SPR (Biacore 8K), conjugate captured on Protein A chip, His-tagged SIRP-α as analyte, single cycle kinetics; pH 7.4, 25 C. The method, then:
as §1, §2, §3

In assay [12] the target is T2, human SIRP-α V2 D1 domain-6His. Described as above. As to the method:
as §1, §2, §3

Assay [13] has as its target T3, Cyno SIRP-α V4 D1 domain-6His-Avi. The assay is described as above. The method, then:
as §1, §2, §3

Assay [14] addresses T4, Mouse SIRP-α normal D1 domain-6His. The assay is described as above. As to the method:
as §1, §2, §3

Assay [15] concerns the target T5, Rat SIRP-α K32-N373-ECD-6His. Described as above. The method, then:
as §1, §2, §3

Assay [16] has as its target T1, human SIRP-α V1 D1 domain-6His. The experiment in a line: SPR (Biacore 8K), conjugate captured on Protein A chip, His-tagged SIRP-α as analyte, single cycle kinetics; pH 7.4, 37 C. As to the method: as §1, §2, §3
The target in assay [17] is T2, human SIRP-α V2 D1 domain-6His. Described as above. The method, then:
as §1, §2, §3

The target of assay [18] is T3, Cyno SIRP-α V4 D1 domain-6His-Avi. The description is as above. The method, then: as §1, §2, §3
Assay [19] deals with T4, Mouse SIRP-α normal D1 domain-6His. The description is as above. The method, then: as §1, §2, §3
Assay [20] addresses T5, Rat SIRP-α K32-N373-ECD-6His. The description is as above. As to the method:
as §1, §2, §3

T1 sequence (P78324 other isoform, or with tags, fused parts or gaps limits assumed): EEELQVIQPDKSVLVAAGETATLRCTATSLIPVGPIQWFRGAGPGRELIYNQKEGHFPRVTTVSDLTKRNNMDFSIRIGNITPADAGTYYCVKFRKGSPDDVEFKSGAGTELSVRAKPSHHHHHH
T2 sequence (chain, as listed by the source limits assumed): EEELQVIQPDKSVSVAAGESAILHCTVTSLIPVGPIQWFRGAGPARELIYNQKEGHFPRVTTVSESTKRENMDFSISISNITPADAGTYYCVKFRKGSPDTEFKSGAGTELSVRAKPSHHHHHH

B1: anti-SIRP-α antibody-CpG oligonucleotide conjugate (human IgG4 heavy chain SEQ ID NO:66, light chain SEQ ID NO:73, conjugated to CpG oligo 7-7, SEQ ID NO:35) (antibody, V domains shown)
VH: EVQLVESGGGVVQPGGSLRLSCAASGFTFSSNAMSWVRQAPGKGLEWVAGISAGGSDTYYPASVKGRFTISRDNSKNTLYLQMNSLRAEDTAVYYCARETWNHLFDYWGQGTLVTVSS
VL: SYELTQPPSVSVSPGQTARITCSGGSYSSYYYAWYQQKPGQAPVTLIYSDDKRPSNIPERFSGSSSGTTVTLTISGVQAEDEADYYCGGYDQSSYTNPFGGGTKLTVLG
modifications: CpG oligo 7-7 (SEQ ID NO:35) with PEG linker attached by an amide bond to the glutamine of the C-terminal Q-tag RPQGFGPP; the general method pools DAR1 fractions (one CpG per antibody)
notes: The oligonucleotide payload is not a protein; also called anti-SIRP-α antibody conjugate; anti-hIgG4 SIRP-α conjugate
Take B1: the Kd in assay [1] is less than 0.001 nM; in [2], less than 0.001 nM; in assay [3], 0.05 nM; in [4], less than 0.001 nM; in assay [5] it was 3.8 nM; in assay [6], less than 0.001 nM. The Kd is 0.01 nM in assay [7]; 0.1 nM in [8]; 0.07 nM in [9]; 8.5 nM in [10]; 0.1 nM in assay [11]; 0.23 nM in [12]. Besides, the Kd is 0.45 nM in assay [13]; 0.69 nM in assay [14]; 61.4 nM in assay [15]; 0.28 nM in assay [16]; 0.51 nM in assay [17]; 0.71 nM in assay [18]. Further, the dissociation constant (Kd) in assay [19] amounted to 1.63 nM; in [20], 175 nM.

The Kd is the concentration at which binding is half-saturated. A higher Kd goes with lower affinity.
